In the DeepSol protein solubility set:

Assay: soluble on expression in E. coli; label from the status in PepcDB or PDB records

Sequence | soluble on expression in E. coli
MPHPNRTFKIVIAPDSFKSTATTSQAAAFIAEGIQAAVQSNECEGINVEITTVPMADGGEGTSSCFEGIDITLPTTDANGRLTEATYRFDPQSETAYIDVAAASGLPAVEDELRPLTADTYGTGVLIADAQTRGARR | not soluble
MPISSSSARRAEPAPRPLAEFHPVVRQWFERHFAAPTPAQVEAWPAIREGLSTLVAAPTGSGKTLTAFLAAIDALVVEGLAAGGELADATQVVYVSPLKALSNDIRINLEQPLAGIREELARLGLPDVDIRSAVRTGDTPQVERGAMRKRPPHILVTTPESLYILLGSESGRQMLAGVRSVIVDEIHALAGSKRGSHLALSLERLQALCPRPLLRIGLSATQKPIEKVARFLVGASGNPRDPACRIVDVGYTRPRDLGIEVPPVALEAVMSNDTWELVYDRLAHLAGEHRTTLVFVNTRRMAERVTRFLAERLGSRQVAAHHGSLAKELRLDAEQRLKAGQLKVLVATASLELGIDIGDVELVCQLSSPRSIAAFLQRVGRSGHSVGGTPKGRLFPTSRDDLVECAALLDSVRRGELDSLVLPRQPLDVLAQQIVAEVACQEWREDDLYRLVIRAEPYAGLERERFDEVLRMLAEGYHSRLGVRGAYLHRDALNGLLRGRRGARLTALTSGGTIPDTGDYSVLLEPQGLLVGTVNEDFAVESLAGDVFQLGNTSYRIIRIEPGRVRVEDAQGQPPNIPFWLGEAPGRSDELSASVARLRDTLDELLGEGQALPEGRRLEPAIAWLGATLGLDDGAARQIVEYLARARQALGGLPGSRRLVLERFFDESGGMQLIIHSPHGSRLNRAWGLALRKRFCRSFNFELQAAATEDAIILSLSTSHSFPLDEVWRYLHSASAEHLLVQAVLDAPLFGVRWRWNLTTSLGLPRYAGGRKVPPQLLRMKSEDLLASVFPDQVACLENIVGEREVPDHPLVAQTLDDCLHEAMDCEGWLALLRDMESGAVDLLARDLPAPSALAAEILTARPYAYLDDAPLEERRTQAVQNRRWSDPESADDLGALDLEAIEAVRGEAWPEASNADEMHEALNSLGFLTSGEAEANPGWGEWLAQLSEQRRAGRLDCAGSTLWLAAERLPAMRLVHPAAKVPDAFQAPRGYPPPDSAEAATVELTRARLGGFGPRTAGQLAADLGIGLADQQYALAALEREGYVLRGRFSPGATEEEWCERHLLARIHRYTVKRLRREIEPVERADFMRFLFDWQRLAPGTRGRGAESLATVVEQLEGFQAAAAAWESELLAARVADYASHWLDQLCRSGRIVWARLAGRSKAAGGPLRSAPIVLLPRRELGLWSVLQRDAPEPELSPRAARVLEVLREQGASFFDELSQDAHLLRSELENALGELVSVGRVNADSFAGLRTLLMPADKRSRQERRSRGLPGGMQDAGRWAPLRRAKAEEAGQRLPAEVLEHVARTLLRRYGVVAWRLLEREADWLPPWRELLRVYHRLEARGEIRGGRFIAGLAGEQFALAEAVGLLREVRKRPPDGAMLVVSAVDPLNLVGGLLPGERVPAVTGNRLLYRDGAPLAALVAGKVRMLAEVDGETAQQIRALLI | not soluble
MPITWMRMRPWLEMQINSNQIPGLIWINKEEMIFQIPWKHAAKHGWDINKDACLFRSWAIHTGRYKAGEKEPDPKTWKANFRCAMNSLPDIEEVKDQSRNKGSSAVRVYRMLP | soluble
MPKRKTGYEEMLEDVIETLKQSPEEVNKALETSGKVVEAANDLTKDELALIAAYVKADLKEFSESYEDSKSGPFYLTVADSIWQGLLEITDRTKVEWVELFDDLEHQGLYEAGEVIGLGTLVCDECGHKTTYNHPIIIIPCIKCGHKGFSRQSLKP | not soluble
MPKRSKEDTEITIQKIMDAVVDQLLRLGYDKMSYTTLSQQTGVSRTGISHHFPKKTDFTAALDGRIFKMFIEHLEFEKGLDAFSQSWIKALEDSEFLAILRLLFHHIVTSESAHEFAANGIDRLYKMVESQFGSGGDKELEWLIGRSLIQMSK | not soluble
MPLALGGTPFEKHVWARLMEIPLGQTRAYGDLAREMERPEVVRAVGRANGANQLAIVVPCHRILGADGSLTGYGGGLWRKQWLLRHEEKIGTETRMEETALEHHHHHH | not soluble
MPLNERQLDAFADEHAGQIPFDASPRHLAGPGDARHVTHGLAAAGWATISDPLSAEIVMASPDHRYRLQYDPQSATSAWWRLRATSADNEHGWYAEFGELVPAEVLSSLTDALIAPASPQSDPWQPVTSAGWRPDEAGAAHSPDAMCHIERRPTSEFHERPSWHIEVRDAHDTQYPGPRIWHAYLDEHAPDHLVGAFLSALTDQSPLQRGMFDRTAHYSAVKEPSPLRPQQVVDAHTSRVKVLRAQARAMRRQQTAPAKPPAPTTAVQPAARRLEHHHHHH | not soluble
MPLNTDFFKPSKNKEKFVLVFLKRGYPSHVDLLTKIAEKVKMKSIGYKIPNAEYLERVSDEELRDLYSSALVTLYPIDFEYYGYIPVESMAAGTPVIAFRYSGGPAETIVDGETGWLASDEEEFYRLTIKVYNEGYPEDTSVKSRKRAEEFSIQN | soluble
MPLTDTPPSVPQKPRRGRPRGAPDASLAHQSLIRAGLEHLTEKGYSSVGVDEILKAARVPKGSFYHYFRNKADFGLALIEAYDTYFARLLDQAFLDGSLAPLARLRLFTRMAEEGMARHGFRRGCLVGNLGQEMGALPDDFRAALIGVLETWQRRTAQLFREAQACGELSADHDPDALAEAFWIGWEGAILRAKLELRPDPLHSFTRTFGRHFVTRTQE | soluble
MPMDSYEKRGYLDREFRLFHLSACLPGDISYHYHDFDKILIFLRGDVDYVIEGRSYHLNPYDIVLVGHHSIHKPLLRSGDVYERIVVYLSPGYVDSFRTENCDLSRCFKDAREHCSDVLRISSLKISSLYESLIRLEKACREDGYAKELYCRILFLEFMIHLNRAASGSHLEYVSTSPSSEKVLEIMRYISENPSADFTIDSLASRFFLSKFHMMRLFKQETGYTINSYINEKRLLMAKELLGRNLPVTEVCFRCGFRNYAAFLRAYKKNFGENPKSGKRPEGRTSVDNLHAPRTEHRLQKKPLSK | not soluble
MPMYKLTPTFPPNFEVHPKIACYPVGSYHNPSFGGVGPSDAVQVESDPRKALEHKQLSLIEQLKAQTEELKKLLVSLGEAGKAERSAQKPAEKAPKEPEKSAGAASSAPGVPGAPAKLDKDAKKEARKAAKAEAVKKLASGEAPPQKSAKKTVNSTPWTVQDDRKTWETNLTLTVNLPTSLVAYEPQEQLKNATLTVRDVDLPWARALAKVGASRGVSFEGEVKNQTKEKKSSLKVVKGPAPSLQLEKTTVKSLQTIWKLLGSSLGLFSRRPQQVLSASHQAIWLGKAEQILAGSCDQSFVTREASQFLARFDSLSSQWEVCVADIVFRSLLNLGEHLPNNVELWAKKIDALIV | soluble
MPNQNFNAQLAEAISALNTPNFTPKLMSVIHSIFDFDCAIILGYREGKHPIYLYDSIENERELLFQRYLTNSFQNDPFFQNLNQHKQQGIFTLKDVAKKGIEYQTYRKQFYDQTGWKDELSMLVEIESGRWVILYFGCLREGKRFSAAQINNLRSHFSVLQSLCQQHWKQAEFNLSEPVVRPDAYTGNMKVAIEQALSSFGIE | not soluble
MPNYKLTYFNMRGRAEIIRYIFAYLDIQYEDHRIEQADWPEIKSTLPFGKIPILEVDGLTLHQSLAIARYLTKNTDLAGNTEMEQCHVDAIVDTLDDFMSCFPWAEKKQDVKEQMFNELLTYNAPHLMQDLDTYLGGREWLIGNSVTWADFYWEICSTTLLVFKPDLLDNHPRLVTLRKKVQAIPAVANWIKRRPQTKL | soluble
MPPMAKNAAVTDVVHLDSDSDSDNGVVGGRESASTIAGAATMAPRETLECRSFWKAGDYFVIPNVVTPTAPAIAELLDNAVDEIQNGATFVKIDKINIVKDNSPALVFQDDGGGMDPAGLRKCMSLGYSSKKSNTTIGQYGNGFKTSTMRLGADAIVFSRSTRGGTSTQSVGILSYTFLRKTGQDDVTVPMIRYVMQIDIDISKERPQPIIYGSPEDWAANLEILLKWSPFSTEDELLQQSVLLIFLFPSSTHQFEDVGTHGTKVIIYNLWLNDEGIYELSFDDDEEVTHTFPQLIYTRRDILPEDIRLRDESVNDGKRLHHKILELRSHISYHLRYSLRAYASMLYLKKFKNFKIIIRGIPVEQFNIADGFRFPEIIKYKPHTATTEQASTEIKIGFVKEAPKLAICGFNVYHKNRLIRDTGNNLDGKSAGEIRQENLQLFMRYIYKKRKIRISISYLCGDLNQILFFNRCEEYIKKENETEQTVKSLEKELEEFKSKCAHLALLVDAKKKEMQQA | soluble
MPPRFNIANVLLSPDGETFFRGFRSKIHAKGSLVCTGEGDENGVFVVVDGRLRVYLVGEEREISLFYLTSGDMFCMHSGCLVEATERTEVRFADIRTFEQKLQTCPSMAWGLIAILGRALTSCMRTIEDLMFHDIKQRIAGFFIDHANTTGRQTQGGVIVSVDFTVEEIANLIGSSRQTTSTALNSLIKEGYISRQGRGHYTIPNLVRLKAAADGDRDDDDD | soluble
MPQDSSQGRPRGDDVWVAEAKYDCNTRGRNSIMGNGALKYRTESKNFFNLIPEEVFHNTMKYLDLFLRNLRNIII | not soluble
MPQESSDAKRIEPPRKVDFMLKPRFTNTVPDVPFDAKFMTCPFVPLGRFVEFQPAAIYRDYKHAVICDDDMGLNVDLIDLKKYDEDPIETEIDEKDNILLEDDGAAKLIAKRSQQHSKLVPWMRKTEYISTEFNRFGVTADRQETKLGYNLKKNQQVEDMYRDKQSQIDAINKTFEDVRKPVKEHYSKKGVKAVEESFVFPDFDHWKHLFAHVQFDGDTITTEFEEEDERQQARESSVIKAMEFEDQKFAAVFVPTIGCLTSFMDDLELERPFDEDMKYEFLLSREYTFKMEHLPPRDRDVFIMYHRNNVFQYNEVDCNVKMTRKPKMALSRKSKLTLTYRNPSELEQKDMNKREAELYEQPKTRKQEILEKIQEKKEEGGDSSDQSSDSDDDKPQKSRSDSSSDVSSDDDSPRKKEPTVDSDSD | not soluble
MPQLQKEWFDTWFDTPYYHILYSNRDESEAEVFLTNLMNHMAVPKGASILDLPCGKGRHTLFLAEKGYTLTGADLSVASIALAQSHAPAGVTFLVHDLRKPAWNESFDYVLNLFTSFGYFETEAEDRAAFTTLSKALKSGGSLVIDFMNVTRAVNLLKEEETKVMEGIEFQLKRYVKDGYIHKEIRFEADNTPFFFTERVKALTLDDFKEFFTFAGLTLVDTFGSYQLDAYDAAESDRLIMIAKKLEHHHHHH | soluble
MPRASISDTIPMTMASIDAGSVRFTARADKRHLNPLGGVHGGFAATVLDSVTGCAIHSILEAGVGYGTVDLSVKRVKAVPEDTPLVAEGRVLHVPCAIGSQRADLMLAPPRLGRDRRCPAGLEHHHHHH | not soluble
MPRFSNKTVIITGSSNGIGRTTAILFAQEGANVTITGRSSERLEETRQIILKSGVSEKQVNSVVADVTTEDGQDQIINSTLKQFGKIDVLVNNAGAAIPDAFGTTGTDQGIDIYHKTLKLNLQAVIEMTKKVKPHLVASKGEIVNVSSIVAGPQAQPDFLYYAIAKAALDQYTRSTAIDLAKFGIRVNSVSPGMVETGFTNAMGMPDQASQKFYNFMASHKECIPIGAAGKPEHIANIILFLADRNLSFYILGQSIVADGGTSLVMGTQAHDVMSIMSSH | soluble
MPRGHAGDFPPPALSVRNRPGNSGLVLETCFAQLRSGRKDHGARVRNMTAPRSIVIGGGAFAGLALALALRQGLGPEVPVIVADPALALRPSRDPRATAIVAACRRLFEALGVWDEVAPTAQPIIDMVVTDSHLEDATRPVFLTFAGEVQPGEPFAHMVENRYLVEALAKRAEAEGVELRATPVTSYDARTEAIGVTLGDGSVIDASLLVAADGAKSKLRQRAGIATYGWDYDQSGIVVTVEHERDHNGCAEEHFLPAGPFAILPLTGRRSSLVWSESRRDAERIVALPEKEFQRELEKRFGLRLGDIKPLDKPKSFPLGYFVAQSFIAPRLALIGDAAHVIHPIAGQGLNMGLRDVAALAEVVVDAARLGIDPGQVDVLERYQRWRRFDTVAMGVATNGLNFLFSNNSPLLRGIRDIGLGLVDRLPPLKGAFIRQAAGLTGEIPRLLKGEALLEHHHHHH | soluble
